Results taken from patent publication US20030073218A1, “High affinity inhibitors for target validation and uses thereof” (Princeton University, priority 1999, published 2003).

System: T1, Nc1ncnc2c1ncn2[C@@H]1O[C@H](COP(=O)(O)OP(=O)(O)OP(=O)(O)O)[C@@H](O)[C@H]1O
T1 construct: made in house; host or cells: Sf9 insect cells, baculovirus, co-infected with Cak1-HA3 (Cdc28-His6); bacteria (MBP-Clb2)
Assay: purified protein, by the assay type
Type: biochemical, Saccharomyces cerevisiae
Details: other: Cdc28 · MBP-Clb2; pH 7.4; 23.0 °C

Chain of Cdc28 · MBP-Clb2 (Saccharomyces cerevisiae S288C) (chain, as listed by the source S288C): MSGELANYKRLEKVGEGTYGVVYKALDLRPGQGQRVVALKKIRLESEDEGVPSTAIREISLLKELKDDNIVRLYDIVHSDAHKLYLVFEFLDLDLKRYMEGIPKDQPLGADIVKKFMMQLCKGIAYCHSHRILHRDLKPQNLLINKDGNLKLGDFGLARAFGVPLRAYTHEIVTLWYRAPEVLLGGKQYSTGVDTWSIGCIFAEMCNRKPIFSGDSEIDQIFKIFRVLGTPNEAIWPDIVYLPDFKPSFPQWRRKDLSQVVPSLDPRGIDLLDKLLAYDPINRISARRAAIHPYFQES

## Cdc28 · MBP-Clb2 (Saccharomyces cerevisiae S288C)
  Km: 35 µM
  kcat: 2.2 s⁻¹
  kcat/Km: 62170 M⁻¹ s⁻¹
